Source: publication PMC3062166 (Molecular cell, 2011)

Experiments:
[1] = molecular target: SFB-RNF40 (baculovirus) (human, UniProt O75150 1-1001); experiment: pull-down + SEC
[2] = molecular target: SBP-RNF20 (baculovirus) (human, UniProt Q5VTR2 1-975); experiment: pull-down + SEC
Sequence of SBP-RNF20 (baculovirus) (Q5VTR2 whole entry): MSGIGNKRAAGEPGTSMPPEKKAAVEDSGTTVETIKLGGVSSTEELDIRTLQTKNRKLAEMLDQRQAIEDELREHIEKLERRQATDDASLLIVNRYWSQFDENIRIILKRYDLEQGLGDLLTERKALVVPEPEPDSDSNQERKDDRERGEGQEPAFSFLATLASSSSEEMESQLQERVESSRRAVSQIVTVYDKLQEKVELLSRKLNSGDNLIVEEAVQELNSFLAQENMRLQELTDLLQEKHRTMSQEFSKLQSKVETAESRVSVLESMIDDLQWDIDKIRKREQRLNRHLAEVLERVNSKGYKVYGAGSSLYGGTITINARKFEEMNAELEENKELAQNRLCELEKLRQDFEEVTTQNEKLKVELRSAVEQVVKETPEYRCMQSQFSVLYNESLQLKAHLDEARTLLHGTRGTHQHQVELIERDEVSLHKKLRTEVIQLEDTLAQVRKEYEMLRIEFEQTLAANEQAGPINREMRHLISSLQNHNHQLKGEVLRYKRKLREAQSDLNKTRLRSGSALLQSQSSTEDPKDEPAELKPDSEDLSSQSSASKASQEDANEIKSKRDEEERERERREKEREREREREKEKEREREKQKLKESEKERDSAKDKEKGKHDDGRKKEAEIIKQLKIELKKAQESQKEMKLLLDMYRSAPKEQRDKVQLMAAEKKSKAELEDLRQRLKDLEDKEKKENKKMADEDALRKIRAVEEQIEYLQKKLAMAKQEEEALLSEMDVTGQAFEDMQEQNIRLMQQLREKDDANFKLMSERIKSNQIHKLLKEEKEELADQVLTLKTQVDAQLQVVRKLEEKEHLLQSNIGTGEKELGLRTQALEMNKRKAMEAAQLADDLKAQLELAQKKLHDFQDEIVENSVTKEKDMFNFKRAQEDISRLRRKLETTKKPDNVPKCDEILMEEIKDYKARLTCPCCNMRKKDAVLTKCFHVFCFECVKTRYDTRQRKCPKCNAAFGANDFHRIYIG

Sequence of SFB-RNF40 (baculovirus) (O75150 whole entry): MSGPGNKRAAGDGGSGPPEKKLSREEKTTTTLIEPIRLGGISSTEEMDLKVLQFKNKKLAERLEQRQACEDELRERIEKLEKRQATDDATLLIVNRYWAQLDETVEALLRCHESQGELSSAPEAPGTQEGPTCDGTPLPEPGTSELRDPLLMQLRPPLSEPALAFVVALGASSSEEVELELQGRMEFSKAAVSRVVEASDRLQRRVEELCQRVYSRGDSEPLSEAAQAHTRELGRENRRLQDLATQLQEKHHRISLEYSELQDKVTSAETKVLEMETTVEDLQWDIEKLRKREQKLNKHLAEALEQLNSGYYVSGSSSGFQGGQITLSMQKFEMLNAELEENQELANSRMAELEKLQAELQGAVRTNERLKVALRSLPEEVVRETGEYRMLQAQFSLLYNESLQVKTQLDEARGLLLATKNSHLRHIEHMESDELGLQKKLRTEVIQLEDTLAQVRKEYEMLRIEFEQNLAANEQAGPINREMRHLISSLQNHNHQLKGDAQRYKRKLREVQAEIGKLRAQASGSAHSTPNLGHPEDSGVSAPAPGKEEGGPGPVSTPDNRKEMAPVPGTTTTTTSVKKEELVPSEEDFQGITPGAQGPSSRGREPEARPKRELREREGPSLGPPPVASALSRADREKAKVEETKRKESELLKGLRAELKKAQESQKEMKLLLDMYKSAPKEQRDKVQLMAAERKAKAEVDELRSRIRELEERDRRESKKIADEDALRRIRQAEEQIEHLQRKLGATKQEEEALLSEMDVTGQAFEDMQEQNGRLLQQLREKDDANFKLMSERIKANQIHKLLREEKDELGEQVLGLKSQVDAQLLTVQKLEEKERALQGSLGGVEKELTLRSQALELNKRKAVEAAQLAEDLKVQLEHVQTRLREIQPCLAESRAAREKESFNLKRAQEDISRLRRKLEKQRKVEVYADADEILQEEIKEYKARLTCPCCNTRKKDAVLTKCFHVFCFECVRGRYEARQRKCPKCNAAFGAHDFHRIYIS

B1: untagged WAC (baculovirus) (natural protein, UniProt Q9BTA9 1-647, looked up)
chain: MVMYARKQQRLSDGCHDRRGDSQPYQALKYSSKSHPSSGDHRHEKMRDAGDPSPPNKMLRRSDSPENKYSDSTGHSKAKNVHTHRVRERDGGTSYSPQENSHNHSALHSSNSHSSNPSNNPSKTSDAPYDSADDWSEHISSSGKKYYYNCRTEVSQWEKPKEWLEREQRQKEANKMAVNSFPKDRDYRREVMQATATSGFASGMEDKHSSDASSLLPQNILSQTSRHNDRDYRLPRAETHSSSTPVQHPIKPVVHPTATPSTVPSSPFTLQSDHQPKKSFDANGASTLSKLPTPTSSVPAQKTERKESTSGDKPVSHSCTTPSTSSASGLNPTSAPPTSASAVPVSPVPQSPIPPLLQDPNLLRQLLPALQATLQLNNSNVDISKINEVLTAAVTQASLQSIIHKFLTAGPSAFNITSLISQAAQLSTQAQPSNQSPMSLTSDASSPRSYVSPRISTPQTNTVPIKPLISTPPVSSQPKVSTPVVKQGPVSQSATQQPVTADKQQGHEPVSPRSLQRSSSQRSPSPGPNHTSNSSNASNATVVPQNSSARSTCSLTPALAAHFSENLIKHVQGWPADHAEKQASRLREEAHNMGTIHMSEICTELKNLRSLVRVCEIQATLREQRILFLRQQIKELEKLKNQNSFMV
**Q.** Which “stoichiometry N” value [1] does the source give for B1 here?
**A.** ~1 WAC per RNF40 (2:2)

**Q.** What about the “stoichiometry N” value [2] of the same binder?
**A.** ~1 WAC per RNF20 (2:2)
